Laboratory results taken from patent US20110311550A1.

Assays:
Assay in all cases: ELISA, lectin-captured E1E2 lysate, Ab 1 ug/ml
[1] = target: E1E2 complex (H77) with E1 mutation G282A (HCV genotype 1a, isolate H77) (UniProt P27958)
[2] = target: E1E2 complex (H77) with E1 mutation L221A (HCV genotype 1a, isolate H77) (UniProt P27958)
[3] = target: E1E2 complex (H77) with E2 mutation R630A (HCV genotype 1a, isolate H77) (UniProt P27958)
[4] = target: E1E2 complex (H77) with E1 mutation H261A (HCV genotype 1a, isolate H77) (UniProt P27958)
[5] = target: E1E2 complex (H77) with E1 mutation S273A (HCV genotype 1a, isolate H77) (UniProt P27958)
[6] = target: E1E2 complex (H77) with E1 mutation N196A (HCV genotype 1a, isolate H77) (UniProt P27958)
[7] = target: E1E2 complex (H77) with E2 mutation F442A (HCV genotype 1a, isolate H77) (UniProt P27958)
[8] = target: E1E2 complex (H77) with E2 mutation R614A (HCV genotype 1a, isolate H77) (UniProt P27958)
[9] = target: E1E2 complex (H77) with E1 mutation S236A (HCV genotype 1a, isolate H77) (UniProt P27958)
[10] = target: E1E2 complex (H77) with E2 mutation F447A (HCV genotype 1a, isolate H77) (UniProt P27958)
[11] = target: E1E2 complex (H77) with E2 mutation L441A (HCV genotype 1a, isolate H77) (UniProt P27958)
[12] = target: E1E2 complex (H77) with E1 mutation W353A (HCV genotype 1a, isolate H77) (UniProt P27958)
[13] = target: E1E2 complex (H77) with E1 mutation G311A (HCV genotype 1a, isolate H77) (UniProt P27958)
[14] = target: E1E2 complex (H77) with E1 mutation T255A (HCV genotype 1a, isolate H77) (UniProt P27958)
[15] = target: E1E2 complex (H77) with E1 mutation N305A/N209A (HCV genotype 1a, isolate H77) (UniProt P27958)
[16] = target: E1E2 complex (H77) with E1 mutation Y309A (HCV genotype 1a, isolate H77) (UniProt P27958)
[17] = target: E1E2 complex (H77) with E2 mutation P619A (HCV genotype 1a, isolate H77) (UniProt P27958)
[18] = target: E1E2 complex (H77) with E2 mutation T621A (HCV genotype 1a, isolate H77) (UniProt P27958)
[19] = target: E1E2 complex (H77) with E2 mutation Y443A (HCV genotype 1a, isolate H77) (UniProt P27958)
[20] = target: E1E2 complex (H77) with E2 mutation N448A (HCV genotype 1a, isolate H77) (UniProt P27958)
[21] = target: E1E2 complex (H77) with E1 mutation N325A (HCV genotype 1a, isolate H77) (UniProt P27958)
[22] = target: E1E2 complex (H77) with E1 mutation R317A (HCV genotype 1a, isolate H77) (UniProt P27958)
[23] = target: E1E2 complex (H77) with E1 mutation A269G (HCV genotype 1a, isolate H77) (UniProt P27958)
[24] = target: E1E2 complex (H77) with E1 mutation D206A (HCV genotype 1a, isolate H77) (UniProt P27958)
[25] = target: E1E2 complex (H77) with E2 mutation G635A (HCV genotype 1a, isolate H77) (UniProt P27958)
[26] = target: E1E2 complex (H77) with E1 mutation F291A (HCV genotype 1a, isolate H77) (UniProt P27958)
[27] = target: E1E2 complex (H77) with E2 mutation G634A (HCV genotype 1a, isolate H77) (UniProt P27958)
[28] = target: E1E2 complex (H77) with E1 mutation Q302A (HCV genotype 1a, isolate H77) (UniProt P27958)
[29] = target: E1E2 complex (H77) with E1 mutation Y201A (HCV genotype 1a, isolate H77) (UniProt P27958)

mouse anti-E1 MAb A4 (antibody)
Binding relative to wt (%) [1]: 50% | Binding relative to wt (%) [2]: 104% | Binding relative to wt (%) [3]: 106% | Binding relative to wt (%) [4]: 96% | Binding relative to wt (%) [5]: 38% | Binding relative to wt (%) [6]: 45% | Binding relative to wt (%) [7]: 90% | Binding relative to wt (%) [8]: 133% | Binding relative to wt (%) [9]: 88% | Binding relative to wt (%) [10]: 98% | Binding relative to wt (%) [11]: 111% | Binding relative to wt (%) [12]: 75% | Binding relative to wt (%) [13]: 89% | Binding relative to wt (%) [14]: 106% | Binding relative to wt (%) [15]: 117% | Binding relative to wt (%) [16]: 78% | Binding relative to wt (%) [17]: 108% | Binding relative to wt (%) [18]: 114% | Binding relative to wt (%) [19]: 28% | Binding relative to wt (%) [20]: 97% | Binding relative to wt (%) [21]: 83% | Binding relative to wt (%) [22]: 95% | Binding relative to wt (%) [23]: 47% | Binding relative to wt (%) [24]: 81% | Binding relative to wt (%) [25]: 109% | Binding relative to wt (%) [26]: 67% | Binding relative to wt (%) [27]: 112% | Binding relative to wt (%) [28]: 215% | Binding relative to wt (%) [29]: 5%
